The experiment has as its target T1, spectacled caiman hemoglobin beta-type chain (Caiman crocodilus (endogenous in red …, UniProt P02131 1-146)).
T1 sequence (looked up): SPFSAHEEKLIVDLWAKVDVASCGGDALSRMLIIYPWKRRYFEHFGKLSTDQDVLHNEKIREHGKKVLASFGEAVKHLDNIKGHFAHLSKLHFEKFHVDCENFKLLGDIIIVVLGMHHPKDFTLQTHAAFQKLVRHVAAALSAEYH
The experiment is described as follows: SEC. For orientation: SEC sorts molecules by how far they enter the pores of the column.

We go through 1 molecule from paper doi:10.1101/2021.03.22.436447 (bioRxiv, 2021).

B1: spectacled caiman hemoglobin alpha-type chain (natural protein)
chain: not shown
Regarding B1, the binding result is reported as “binds”.
